Assay results: the RNAGym collection of RNA variant scans (doi:10.7554/elife.90254)

B1: LINE1-full (parent)
chain: UACGUAGGUGGUUUUCCCCUGAUAGUGCUAAGGGGGCCUGGAAGUUUGGACUGGGCAGAGCUCAACACAGCGUGGCAAAGUGGCUGUGGCUAGACUGCCUCUCUGGAUUCCUCGUCACUCAGCAGGGCAUCUCUGAGAGAAAUGCC

Variants of: B1
Assay: self-cleavage, relative activity (ratio to wild type); higher = more cleavage; in vitro, sequencing; the parent is a self-cleaving ribozyme

Variant | self-cleavage
UACGUAGGUGGUUUUCCCCUGAUAGUGCUAAGGGGGCCUGGAAGUUUGGACUGGGCAGAGCUCAGCACAGCGUGGCAAAGUGGCUGUGGCUAGACUGCCUCUCUGGAUUCCUCGUCACUCAGCAGGGCAUCUCUGAGAGAAGUGCC [A65G A142G] | 0.06
UACGUAGGUGGUUUUCCCCUGAUGGUGCUAAGGGGGCCUGGAAGUUUGGACUGGGCAGAGCUCAACACGGCGUGGCAAAGUGGCUGUGGCUAGACUGCCUCUCUGGAUUCCUCGUCACUCAGCAGGGCAUCUCUGAGAGAAAUGCC [A24G A69G] | 0.92
UACGUAGGUGGUUUUCCCCUGAUAGUGCUUAGGGGGCCUGGAAGUUUGGACUGGGUAGAGCUCAACACAGCGUGGCAAAGUGGCUGUGGCUAGACUGCCUCUCUGGAUUCCUCGUCACUCAGCAGGGCAUCUCUGAGAGAAAUGCC [A30U C56U] | 0.04
UACGUAGGUGGUUUUCCCCUGAUAGUGCUAAGGGGGCCUGGAAGUUUGGACUGGGCAGAGCUCAACACAGCGUGGCAAAGUGGCUGUGGCUAGACUGCCCCUCUGGAUUCCUCGUCACUCAGCAGGGCAUCUCUGAGAGAGAUGCC [U100C A141G] | 1.9
UACGUAGGUGGUUUUCCCCUGAUAGUGCUAAGGGAGCCUGGAAGUUUGGACUGGGCAGAGCUCAACACAGCGUGGCAAUGUGGCUGUGGCUAGACUGCCUCUCUGGAUUCCUCGUCACUCAGCAGGGCAUCUCUGAGAGAAAUGCC [G35A A79U] | 1.72
UGCGUAGGUGGUUUUCCCCUGAUAGUGCUAAGGGGGCCUGGAAGUUUGGACUGGGCAGAGCGCAACACAGCGUGGCAAAGUGGCUGUGGCUAGACUGCCUCUCUGGAUUCCUCGUCACUCAGCAGGGCAUCUCUGAGAGAAAUGCC [A2G U62G] | 0.37
UACGUAGGUGGUUUUCCCCUGAUAGUGCUAAGGGGGCUUGGAGGUUUGGACUGGGCAGAGCUCAACACAGCGUGGCAAAGUGGCUGUGGCUAGACUGCCUCUCUGGAUUCCUCGUCACUCAGCAGGGCAUCUCUGAGAGAAAUGCC [C38U A43G] | 0.81
UACGUAGGUGGUCUUCCCCUGAUAGUGCUAAGGGGGCCUGGAAGUUUGGACUGGGCAGAGCUCAACACAGCGUGGCAAAGUGGCUGUGGCUAGACUGCCUCUCUGGAUUCCUCGUCACGCAGCAGGGCAUCUCUGAGAGAAAUGCC [U13C U119G] | 1.28
UACGUAGGUGGUUUUCCCCUGAUAGUGCUAAGGGGGCCUGGAAGUUUGGACUGGGCAGAGCUCAACACAGCGUGGCAAAGUGGCUGUGGCUAGACUGCCUCUCUGGAUUCCUCGUAACUCAGCAGGGCAUCUCUGAGAGAUAUGCC [C116A A141U] | 1.47
UACGUAGGUGGUUUUCCCCUGAUAGUGCUAAGGGGGCCUGGAAGUUUGGACUGGGCAGAGCUCAACACAGCGUGGCAAAGUGGCAGUGGCUAGACUGCCUCUCUGGAUUCCUCGACACUCAGCAGGGCAUCUCUGAGAGAAAUGCC [U85A U115A] | 0.09
UACGUAGGUGGUCUUCCCCUGAAAGUGCUAAGGGGGCCUGGAAGUUUGGACUGGGCAGAGCUCAACACAGCGUGGCAAAGUGGCUGUGGCUAGACUGCCUCUCUGGAUUCCUCGUCACUCAGCAGGGCAUCUCUGAGAGAAAUGCC [U13C U23A] | 1.09
UACGUAGGUGGUUUUUCCCUGAUAGUGCUAAGGGGGCCUGGAAGUUUGGACUGGGCAGAGCUCAACACAGCGUGGCAAAGUGGCUGUGGCUAGACUGCCUCUCUGGACUCCUCGUCACUCAGCAGGGCAUCUCUGAGAGAAAUGCC [C16U U108C] | 1.72
UACGUAGGUGGUUUUCCCCUGAUAGUGCUAAGGGGGCCUGGAAGUUCGGACUGGGCAGAGCUCAACACAGCGUGGUAAAGUGGCUGUGGCUAGACUGCCUCUCUGGAUUCCUCGUCACUCAGCAGGGCAUCUCUGAGAGAAAUGCC [U47C C76U] | 1.77
UACGUAGGUGGUUUUCCCCUGAUAGUGCUAAGGGGGGCUGGAAGUUUGGACUGGGCAGAGCUCAACACAGCGUGGCAAAGUGGCUGUGGCUAGACUGCCUCUCUGGAUUCCCCGUCACUCAGCAGGGCAUCUCUGAGAGAAAUGCC [C37G U112C] | 0.28
UACGUAGGUGGUUUUCCCCUGAUAGUGCUAAGGGGGCCUGGAAGUUUGGACUGGGCAGAGCUCACCACAGCGUGGCAAAGUGGCUGUGGCUAGACUGCCUCUCUGGAUUCCUCGUCACUCAGCAGGGCGUCUCUGAGAGAAAUGCC [A65C A129G] | 0.09
UACGUAGGUGGUUUUCCCCUGAUAGUGCUAAGGGGGCCUGGAAGUUUGGACUGGGCAGAGCUCAACACAGCGUGGCAAAGUGGCUGUGGCUAGACUGCCUCCCUGGUUUCCUCGUCACUCAGCAGGGCAUCUCUGAGAGAAAUGCC [U102C A107U] | 0.42
UACGUAGGUGGUUUUCCCCUGAUAGUGCUAAGGGGGCCUGGAAGUUUGGACUGGGCAGAGCCCAACACAGCGUGGCAAAGUGGCUGUGGCUAGACUGCCUCUAUGGAUUCCUCGUCACUCAGCAGGGCAUCUCUGAGAGAAAUGCC [U62C C103A] | 0.04
UACGUAGGUGGUUUUCCCCAGAUAGUGCUAAGGGGGCCUGGAAGUUUGGACUGGGCAGAGCUCAACACAGCGUGGCAAAGUGGCUGUGGCUAGACUGCCUCUCUGGAUUACUCGUCACUCAGCAGGGCAUCUCUGAGAGAAAUGCC [U20A C110A] | 1.4
UACGUAGGUAGUUUUCCCCUAAUAGUGCUAAGGGGGCCUGGAAGUUUGGACUGGGCAGAGCUCAACACAGCGUGGCAAAGUGGCUGUGGCUAGACUGCCUCUCUGGAUUCCUCGUCACUCAGCAGGGCAUCUCUGAGAGAAAUGCC [G10A G21A] | 1.14
UACGCAGGUGGUUUUCCCCUGAUAGUGCUAAGGGGGCCUGGAAGUUUGGACUGGGCAGAGCUCAACACAGCGUGGCAAAGUGGCUGUGGCUAGACUGCCUCUCUAGAUUCCUCGUCACUCAGCAGGGCAUCUCUGAGAGAAAUGCC [U5C G105A] | 1.16

Variant | self-cleavage
UACGUAGGUGGUUUUCCCCUGAUAGUGCUAAGGGGGCCUGGAAGUUUGGACUGGGCAGAGCUCAACACAGCGUGGCAAAGUGGCUGUGGCUGGUCUGCCUCUCUGGAUUCCUCGUCACUCAGCAGGGCAUCUCUGAGAGAAAUGCC [A92G A94U] | 0.05
UACGUAGGUGGUUUUCCCCUGAUAGUGCUAAGGGGGCCUGGAAGUUUGGACUGGGCAGAGCUCAUCACAGCGUGGCAAAGUGGCUGUGGCUAGACUGCCUCUCUGGAUUCCCCGUCACUCAGCAGGGCAUCUCUGAGAGAAAUGCC [A65U U112C] | 0.26
UACGUAGGUGGUCUUCCCCUGAUAGUGCUAAGGGGGGCUGGAAGUUUGGACUGGGCAGAGCUCAACACAGCGUGGCAAAGUGGCUGUGGCUAGACUGCCUCUCUGGAUUCCUCGUCACUCAGCAGGGCAUCUCUGAGAGAAAUGCC [U13C C37G] | 1.03
UACGUAUGUGCUUUUCCCCUGAUAGUGCUAAGGGGGCCUGGAAGUUUGGACUGGGCAGAGCUCAACACAGCGUGGCAAAGUGGCUGUGGCUAGACUGCCUCUCUGGAUUCCUCGUCACUCAGCAGGGCAUCUCUGAGAGAAAUGCC [G7U G11C] | 1.02
UACGUAGGUGGUUUUCCCCUGAUAGUGCUAAGGGGGCCUGGAAGUUUGGACUGAGCAGAGCUCAACACAGCGUGGCAAAGUGGCUGUGGCUAGACCGCCUCUCUGGAUUCCUCGUCACUCAGCAGGGCAUCUCUGAGAGAAAUGCC [G54A U96C] | 0.04
UACGUAGGAGGUUUUCCCCUGAUAGUGCUAAGGGGGCCUGGAAGUUUGGACUGGGCAGAGCUCAACACAGCGUGGCAAAGUGGCUGUAGCUAGACUGCCUCUCUGGAUUCCUCGUCACUCAGCAGGGCAUCUCUGAGAGAAAUGCC [U9A G88A] | 0.12
UACGUAGGUGGUUUUCCCCUGAUAGUGCUAAAGGGGCCUGGAAGUUUGGACUGGGCAGAGCUCAACACAGCGUGGCAAAGUGGCUGUGGCUAGACUGCCUCUCUGGAUUCCUCGUCACUCAGCAGGGCAUCUCUGAGAGGAAUGCC [G32A A140G] | 1.61
UACGUAGGUGGUUUUCCCCUGAUAGUGCUUAGGGGGCCGGGAAGUUUGGACUGGGCAGAGCUCAACACAGCGUGGCAAAGUGGCUGUGGCUAGACUGCCUCUCUGGAUUCCUCGUCACUCAGCAGGGCAUCUCUGAGAGAAAUGCC [A30U U39G] | 1.46
UACGUAGGUGGUUUUCCCCUGCUAGUGCUAAGGGGGCCUGGAAGUUUGGACUGGGCAGAGCUCAACACAGCGUGGCAAAGUGGCUGUGGCUAGACUGCCUCUCUGGAUUCCUCGUCACUCAGCAGGGCAUCUCUGAGAGAAGUGCC [A22C A142G] | 1.27
UGCGUAGGUGGUUUUCCCCUGAUAGUGCUGAGGGGGCCUGGAAGUUUGGACUGGGCAGAGCUCAACACAGCGUGGCAAAGUGGCUGUGGCUAGACUGCCUCUCUGGAUUCCUCGUCACUCAGCAGGGCAUCUCUGAGAGAAAUGCC [A2G A30G] | 0.87
UACGUAGGUGGUUUUCCCCUGAUAGUGCUAAGGGGGCCUGGAAGUUUGGACUGGGCAGAGCUCAACACAGCGUGGCAAAGUGGCUGUGGCUAGACUGCCACUCUGGAUUCCCCGUCACUCAGCAGGGCAUCUCUGAGAGAAAUGCC [U100A U112C] | 1.09
UACGUAGGUGGUUUUCCCCUGAUAGUGCUAGGGGGGCCUGGAAGUUUGGACUGGGCAGAGCUCAACACAGCGUGGCAAAGUGGCUGUGGCUAGACUGCCUCUCUGGAUUCCUCGUCAUUCAGCAGGGCAUCUCUGAGAGAAAUGCC [A31G C118U] | 1.73
UACGUAGGUGGUUUUCCCCUGAUAGUGCUAAGGGGGCCUGGAAGUUUGGACUGGGCAGAGCUCAACACAGCGUGGCAAAGUGGCUGUGGCUAGACUGCCUCUCUGGAUUCCUCGUCACUCAGCAGGGCAUCACUGAGAAAAAUGCC [U132A G139A] | 1.33
UACGUAGGUGGUUUUCCCCUGAUAGUGCUAAGGGGGCCUGGAAGUAUGGACUGGGCAGAGCUCAACACAGCGUGGCAAAGUGGCUGUGGCUAGACUGCCUCUCUGGAUUCCUCGUCACUCAGCAGGGCACCUCUGAGAGAAAUGCC [U46A U130C] | 1.88
UACGUAGGUGGUUUUCCCCUGAUAGGGCUAAGGGGGCCUGGAAGUUUGGACUGGGCAGAGCUCAACACAGCGUGGCAGAGUGGCUGUGGCUAGACUGCCUCUCUGGAUUCCUCGUCACUCAGCAGGGCAUCUCUGAGAGAAAUGCC [U26G A78G] | 1.31
UACGUAGGUGGUUUUCCCCUGAUAGUGCUAAGGUGGCCUGGAAGUUUGGACUGGGCAGAGCUCAACACAGCGUGGCAAAGUGGCUGUGGCCAGACUGCCUCUCUGGAUUCCUCGUCACUCAGCAGGGCAUCUCUGAGAGAAAUGCC [G34U U91C] | 0.51
UACGUAGGUGGUUUUCCCCUGAUAGUGCUAAAGGGGCCUGGAAGUUUGGACUGGGCAGAGCUCAACACAGCGUGGCAAAGUGGCUGUGGCUAGACUGCCUCUCUGGAUUCCUCGUCACUCAGCAGGGCAUCUCUGAGAGAAGUGCC [G32A A142G] | 1.22
UACGUAGGUGGUUUUCCCCUAAUAGUGCUAAGGGGGCCUGGAAGUUUGGACUGGGCAGAGCUCAACACAGCGUGGCAAAGUGGCUGUGGCUAGACUGCCUCUCUGGAUUCCCCGUCACUCAGCAGGGCAUCUCUGAGAGAAAUGCC [G21A U112C] | 1.02
UACGUAGGUGGUUUUCCCCUGAUAGUGCAAAGGGGGCCUGGAAGUUUGGACUGGGCAGAGCUCAACACAGCGUGGCAAAGUGGCUGUGGCUAGACCGCCUCUCUGGAUUCCUCGUCACUCAGCAGGGCAUCUCUGAGAGAAAUGCC [U29A U96C] | 0.13
